Results from patent US12589164.

Experiments:
[1] = system: peptide probe with CM HQSRSGAWGLL (SEQ ID NO: 647)
[2] = system: peptide probe with CM HQARSGPWGLL (SEQ ID NO: 643)
[3] = system: (MCA)-Ser-Pro-Trp-Gly-Leu-His-Gln-Ser-Arg-Gly-Lys (DNP)-D-Arg (SEQ ID NO: 663)
[4] = system: peptide probe with CM HQSRAGPWGLL (SEQ ID NO: 645)
[5] = system: (MCA)-His-Gln-Ser-Arg-Ser-Pro-Trp-Gly-Leu-Gly-Lys (DNP)-D-Arg (SEQ ID NO: 665)
[6] = system: peptide probe with CM HQSRSGPWGAL (SEQ ID NO: 649)
[7] = system: (MCA)-His-Gln-Ser-Arg-Ser-Ala-Ile-Ala-Leu-X1-Gly-Lys (DNP)-D-Arg (SEQ ID NO: 654) where X1 is Y
[8] = system: (MCA)-His-Gln-Ser-Arg-Ser-Ala-Ile-Ala-Leu-X1-X2-Lys (DNP)-D-Arg (SEQ ID NO: 653) where X1 is Y and X2 is A
[9] = system: peptide probe with CM HQSASGPWGLL (SEQ ID NO: 644)
[10] = system: (MCA)-His-Gln-Ser-Arg-Ser-Ala-Ile-Ala-Leu-Gly-Ser-Lys (DNP)-D-Arg (SEQ ID NO: 655)
[11] = system: (MCA)-Ser-Pro-Trp-Gly-Leu-His-Gln-Ser-Arg-Ser-Lys (DNP)-D-Arg (SEQ ID NO: 657)
[12] = system: peptide probe with CM HASRSGPWGLL (SEQ ID NO: 642)
[13] = system: (MCA)-His-Gln-Ser-Arg-Pro-Trp-Gly-Leu-Gly-Ser-Lys (DNP)-D-Arg (SEQ ID NO: 660)
[14] = system: (MCA)-His-Gln-Ser-Arg-Ser-Pro-Trp-Gly-Gly-Ser-Lys (DNP)-D-Arg (SEQ ID NO: 661)
[15] = system: peptide probe with CM HQSRSAPWGLL (SEQ ID NO: 646)
[16] = system: (MCA)-His-Gln-Ser-Arg-Ser-Gly-Pro-Trp-Gly-Leu-X1-Lys (DNP)-D-Arg (SEQ ID NO: 659) where X1 is absent
[17] = system: peptide probe with CM HQSRSGPWALL (SEQ ID NO: 648)
[18] = system: peptide probe with CM HQSRSGPWGLA (SEQ ID NO: 650)
[19] = system: peptide probe with CM HQSRSGPAGLL (SEQ ID NO: 639)
[20] = system: peptide probe with CM AQSRSGPWGLL (SEQ ID NO: 641)
[21] = system: (MCA)-Ser-Pro-Trp-Gly-Leu-His-Gln-Ser-Lys-Ser-Lys (DNP)-D-Arg (SEQ ID NO: 664)
[22] = system: D-Arg-Lys (DNP)-Ala-Ile-Ala-Leu-His-Gln-Ser-Arg-Ser-Lys (MCA)-D-Arg (SEQ ID NO: 658)

MMP9, sequence (chain, as listed by the source): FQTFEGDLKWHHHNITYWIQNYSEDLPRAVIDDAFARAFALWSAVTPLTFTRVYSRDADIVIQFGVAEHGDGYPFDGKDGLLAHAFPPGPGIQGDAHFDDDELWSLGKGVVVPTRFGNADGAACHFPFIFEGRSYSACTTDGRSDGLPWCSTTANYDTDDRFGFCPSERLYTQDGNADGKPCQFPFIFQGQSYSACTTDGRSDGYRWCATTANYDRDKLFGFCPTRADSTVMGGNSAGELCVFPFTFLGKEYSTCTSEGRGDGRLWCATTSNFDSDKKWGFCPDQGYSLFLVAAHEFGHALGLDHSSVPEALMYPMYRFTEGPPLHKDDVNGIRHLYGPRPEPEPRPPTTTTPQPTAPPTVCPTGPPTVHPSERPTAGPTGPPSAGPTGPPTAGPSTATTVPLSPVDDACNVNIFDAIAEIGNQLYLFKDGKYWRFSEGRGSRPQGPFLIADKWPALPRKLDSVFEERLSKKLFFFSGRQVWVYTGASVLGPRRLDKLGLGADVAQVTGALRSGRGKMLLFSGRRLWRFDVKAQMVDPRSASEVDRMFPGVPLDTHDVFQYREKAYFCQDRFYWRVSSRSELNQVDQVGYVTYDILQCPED

Substance: MMP9
- Probe Cleavage (pM/s) [1]: 436 pM/s
- Probe Cleavage (pM/s) [2]: 7430 pM/s
- Probe Cleavage (pM/s) [3]: 18600 pM/s
- Probe Cleavage (pM/s) [4]: 7440 pM/s
- Probe Cleavage (pM/s) [5]: 372 pM/s
- Probe Cleavage Kcat/KM [5]: 11000 M⁻¹ s⁻¹
- Probe Cleavage (pM/s) [6]: 5.9 pM/s
- Probe Cleavage (pM/s) [7]: 328 pM/s
- Probe Cleavage Kcat/KM [7]: 57000 M⁻¹ s⁻¹
- Probe Cleavage (pM/s) [8]: 255 pM/s
- Probe Cleavage Kcat/KM [8]: 24000 M⁻¹ s⁻¹
- Probe Cleavage (pM/s) [9]: 5410 pM/s
- Probe Cleavage (pM/s) [10]: 41.9 pM/s
- Probe Cleavage (pM/s) [11]: 5150 pM/s
- Probe Cleavage Kcat/KM [11]: 120000 M⁻¹ s⁻¹
- Probe Cleavage (pM/s) [12]: 6470 pM/s
- Probe Cleavage (pM/s) [13]: 9600 pM/s
- Probe Cleavage (pM/s) [14]: 86.5 pM/s
- Probe Cleavage (pM/s) [15]: 10700 pM/s
- Probe Cleavage (pM/s) [16]: 705 pM/s
- Probe Cleavage (pM/s) [17]: 7500 pM/s
- Probe Cleavage (pM/s) [18]: 6810 pM/s
- Probe Cleavage (pM/s) [19]: 13900 pM/s
- Probe Cleavage (pM/s) [20]: 7380 pM/s
- Probe Cleavage (pM/s) [21]: 19300 pM/s
- Probe Cleavage (pM/s) [22]: 2550 pM/s
